Substrate in data set [1]: Nc1nc2c(c(=O)[nH]1)N1CN(c3ccc(C(=O)N[C@@H](CCC(=O)O)C(=O)O)cc3)C[C@H]1CN2
In words: NADH-CH2-H4folate oxidoreductase assay, steady-state. Format: biochemical, Escherichia coli. Conditions: other: 1000 μM NADH, fit to eq 6, anaerobic, 25 °C, pH 7.2.

Substrate in data set [2]: Nc1nc2c(c(=O)[nH]1)N1CN(c3ccc(C(=O)N[C@@H](CCC(=O)O)C(=O)O)cc3)C[C@H]1CN2
Nature of the data set: purified protein, by the assay type. Particulars: other: 500 μM NADH, anaerobic, 25 °C, pH 7.2.

B1: Phe223Leu MTHFR (Escherichia coli K-12; F223L) (protein)
chain: MSFFHASQRDALNQSLAEVQGQINVSFEFFPPRTSEMEQTLWNSIDRLSSLKPKFVSVTYGANSGERDRTHSIIKGIKDRTGLEAAPHLTCIDATPDELRTIARDYWNNGIRHIVALRGDLPPGSGKPEMYASDLVTLLKEVADFDISVAAYPEVHPEAKSAQADLLNLKRKVDAGANRAITQFFFDVESYLRFRDRCVSAGIDVEIIPGILPVSNFKQAKKLADMTNVRIPAWMAQMFDGLDDDAETRKLVGANIAMDMVKILSREGVKDFHFYTLNRAEMSYAICHTLGVRPGL
B1: the Km (in general, the concentration of substrate that gives half-maximal velocity) in data set [1] amounted to 8 ± 2 µM.

B2: Phe223Ala MTHFR (Escherichia coli K-12; F223A) (protein)
chain: MSFFHASQRDALNQSLAEVQGQINVSFEFFPPRTSEMEQTLWNSIDRLSSLKPKFVSVTYGANSGERDRTHSIIKGIKDRTGLEAAPHLTCIDATPDELRTIARDYWNNGIRHIVALRGDLPPGSGKPEMYASDLVTLLKEVADFDISVAAYPEVHPEAKSAQADLLNLKRKVDAGANRAITQFFFDVESYLRFRDRCVSAGIDVEIIPGILPVSNFKQAKKAADMTNVRIPAWMAQMFDGLDDDAETRKLVGANIAMDMVKILSREGVKDFHFYTLNRAEMSYAICHTLGVRPGL
With B2, the Km in data set [2] amounted to 93 ± 16 µM.

The record behind these values is publication PMC2805098.
